Where a chain is given by its changes, count along the chain named.
T1: human high affinity trimeric IL-2 receptor (CD25/CD122/CD132) (human, UniProt P01589 22-272; P14784 27-551; P31785 23-369)
T1 sequence 1: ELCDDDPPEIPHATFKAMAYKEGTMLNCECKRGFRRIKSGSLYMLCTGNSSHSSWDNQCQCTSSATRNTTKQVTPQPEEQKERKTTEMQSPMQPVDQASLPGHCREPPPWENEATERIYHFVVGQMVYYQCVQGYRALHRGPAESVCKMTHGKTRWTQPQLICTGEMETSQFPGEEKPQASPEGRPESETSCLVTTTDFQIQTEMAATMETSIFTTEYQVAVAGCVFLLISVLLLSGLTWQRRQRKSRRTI
T1 sequence 2: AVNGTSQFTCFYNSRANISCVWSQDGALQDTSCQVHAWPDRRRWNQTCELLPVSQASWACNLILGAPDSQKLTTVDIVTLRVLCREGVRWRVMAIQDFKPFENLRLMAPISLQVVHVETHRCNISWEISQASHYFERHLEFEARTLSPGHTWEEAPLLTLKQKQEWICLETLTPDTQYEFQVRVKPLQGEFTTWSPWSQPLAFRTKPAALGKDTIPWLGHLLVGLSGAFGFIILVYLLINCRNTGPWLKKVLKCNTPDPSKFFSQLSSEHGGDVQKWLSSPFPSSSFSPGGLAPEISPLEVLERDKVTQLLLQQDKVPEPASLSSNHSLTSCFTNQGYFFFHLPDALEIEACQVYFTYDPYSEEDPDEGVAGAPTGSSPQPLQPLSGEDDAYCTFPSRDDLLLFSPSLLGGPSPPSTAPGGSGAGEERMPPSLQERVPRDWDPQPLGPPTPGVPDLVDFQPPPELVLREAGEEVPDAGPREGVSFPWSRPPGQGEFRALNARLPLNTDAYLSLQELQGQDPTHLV
T1 sequence 3: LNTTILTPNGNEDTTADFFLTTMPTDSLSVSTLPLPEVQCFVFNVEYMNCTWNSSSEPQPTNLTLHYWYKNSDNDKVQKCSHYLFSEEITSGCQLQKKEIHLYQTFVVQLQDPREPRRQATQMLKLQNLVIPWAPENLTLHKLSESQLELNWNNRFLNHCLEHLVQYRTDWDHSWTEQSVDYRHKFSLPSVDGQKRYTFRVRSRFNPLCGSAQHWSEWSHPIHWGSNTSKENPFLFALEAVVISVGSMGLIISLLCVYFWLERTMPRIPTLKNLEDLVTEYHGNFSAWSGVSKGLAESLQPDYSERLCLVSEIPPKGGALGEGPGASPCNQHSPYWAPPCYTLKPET

B1: NEH (ligand)
cytokine: APTSSSTKKTQLQLEHLNLDLEMILNGINNYKNPKLTRMLTFKFYMPKKATELKHLQCLEEELKPLEEVLNLAQSKNFHLRPRDLISNINVIVLELKGSETTFMCEYADETATIVEFLNRWITFCHSIISTLT
B2: RHH (ligand)
cytokine: B1 cytokine with N18R, E22H
B3: RGH (ligand)
cytokine: B1 cytokine with N18R, E22G
B4: RWH (ligand)
cytokine: B1 cytokine with N18R, E22W
B5: RIH (ligand)
cytokine: B1 cytokine with N18R, E22I
B6: DEH (ligand)
cytokine: B1 cytokine with N18D
B7: RLH (ligand)
cytokine: B1 cytokine with N18R, E22L
B8: RSH (ligand)
cytokine: B1 cytokine with N18R, E22S
B9: RKH (ligand)
cytokine: B1 cytokine with N18R, E22K
B10: RMH (ligand)
cytokine: B1 cytokine with N18R, E22M
B11: TEH (ligand)
cytokine: B1 cytokine with N18T
B12: RFH (ligand)
cytokine: B1 cytokine with N18R, E22F
B13: RAH (ligand)
cytokine: B1 cytokine with N18R, E22A
B14: RYH (ligand)
cytokine: B1 cytokine with N18R, E22Y
B15: RVH (ligand)
cytokine: B1 cytokine with N18R, E22V

biological target: T1, human high affinity trimeric IL-2 …; test: cell-based or functional assay

Row | pSTAT5 ratio YT CD25/YT, dilution factor 2, lower table | pSTAT5 ratio YT CD25/YT, dilution factor 4, lower table | pSTAT5 ratio YT CD25/YT, dilution factor 8, lower table | pSTAT5 ratio YT CD25/YT, dilution factor 16, lower table | pSTAT5 ratio YT CD25/YT, dilution factor 32, lower table | pSTAT5 ratio YT CD25/YT, dilution factor 64, lower table | pSTAT5 ratio YT CD25/YT, dilution factor 128, lower table | Binder
1 | 0.9 | 1.1 | 1.8 | 2.6 | 5.1 | 7.9 | 11.9 | B1
2 | 2 | 2 | 2.7 | 3.9 | 6.3 | 10.6 | 16 | B2
3 | 0.6 | 0.8 | 1.1 | 2.1 | 3.4 | 5.5 | 6.9 | B3
4 | 0.8 | 0.8 | 1.2 | 2 | 3 | 5 | 9.1 | B4
5 | 1.1 | 1.5 | 2.4 | 3.8 | 6 | 8.4 | 11.5 | B5
6 | 0.9 | 2 | 4.2 | 7.5 | 8.2 | 10.6 | 9.9 | B6
7 | 0.8 | 1.1 | 1.5 | 2.5 | 3.3 | 4.9 | 6.7 | B7
8 | 1 | 0.9 | 1.1 | 1.8 | 2.8 | 5 | 6.8 | B8
9 | 1 | 1.1 | 1.8 | 3 | 5.5 | 8.1 | 11 | B9
10 | 0.6 | 0.8 | 1.1 | 1.4 | 2.3 | 3.9 | 5.1 | B10
11 | 0.5 | 0.6 | 0.9 | 1.3 | 1.9 | 3.3 | 5.2 | B11
12 | 0.7 | 0.8 | 1.3 | 2.5 | 4.3 | 7.4 | 10.6 | B12
13 | 0.6 | 0.7 | 0.8 | 1.2 | 1.4 | 2.3 | 3.7 | B13
14 | 0.9 | 2.2 | 3.4 | 5.5 | 8.7 | 11.8 | 10.5 | B14
15 | 0.9 | 0.9 | 1.4 | 1.9 | 3.3 | 5.3 | 8 | B15

— patent publication US20210275641A1 (SYNTHEKINE, published 2021)
